# B1: CWCas12f protein (enzyme)
# chain: MGEKSSRRRRNGKSGAWTAAITSCVGGKMAKNTITKTLKLRIVRPYNSAEVEKIVADEKNNREKIALEKNKDKVKEACSKHLKVAAYCTTQVERNACLFCKARKLDDKFYQKLRGQFPDAVFWQEISEIFRQLQKQAAEIYNQSLIELYYEIFIKGKGIANASSVEHYLSDVCYTRAAELFKNAAIASGLRSKIKSNFRLKELKNMKSGLPTTKSDNFPIPLVKQKGGQYTGFEISNHNSDFIIKIPFGRWQVKKEIDKYRPWEKFDFEQVQKSPKPISLLLSTQRRKRNKGWSKDEGTEAEIKKVMNGDYQTSYIEVKRGSKIGEKSAWMLNLSIDVPKIDKGVDPSIIGGIDVGVKSPLVCAINNAFSRYSISDNDLFHFNKKMFARRRILLKKNRHKRAGHGAKNKLKPITILTEKSERFRKKLIERWACEIADFFIKNKVGTVQMENLESMKRKEDSYFNIRLRGFWPYAEMQNKIEFKLKQYGIEIRKVAPNNTSKTCSKCGHLNNYFNFEYRKKNKFPHFKCEKCNFKENADYNAALNISNPKLKSTKEEP
# notes: Recombinant protein purified from E. coli and incubated with engineered sgRNA to form the ribonucleoprotein before size exclusion chromatography; The complex also contains the sgRNA, which is not a protein; also called TnpB; wild-type CWCas12f
# Target: the molecule itself
# Experiment: size exclusion chromatography (Superdex 200) of the CWCas12f-gRNA ribonucleoprotein complex
# Protocol: Using the method for production of ribonucleoprotein particles in Example 1.7, the CWCas12f protein was incubated with the gRNA to produce a ribonucleoprotein complex. The ribonucleoprotein complex was analyzed by size exclusion chromatography using a Superdex 200 column.
protein,measurement,value
B1,binding result,binds

# Reference: patent US20260201355A1 (GENKORE, published 2026)
